Measured values: patent publication US20210330742

Target: CDK4 (UniProt P11802)
Sequence (P11802 2-303): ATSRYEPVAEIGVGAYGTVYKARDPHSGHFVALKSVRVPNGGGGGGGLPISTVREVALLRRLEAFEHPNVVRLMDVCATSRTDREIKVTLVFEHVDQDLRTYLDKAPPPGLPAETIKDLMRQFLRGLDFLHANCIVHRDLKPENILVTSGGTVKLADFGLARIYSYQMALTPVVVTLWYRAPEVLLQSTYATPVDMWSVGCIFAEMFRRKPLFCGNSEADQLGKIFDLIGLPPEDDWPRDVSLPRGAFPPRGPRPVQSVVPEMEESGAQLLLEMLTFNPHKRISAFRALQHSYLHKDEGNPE

With JNK the “phosphorylation of CDK4 at Thr-172 (immunoblot)” value was “JNK phosphorylated T172 of CDK4 2 hours after serum stimulation”.
